In general, Kd refers to a measure of binding affinity in units of concentration. Read a high Kd as lower affinity. As a reminder, the koff is a measure of how fast the partners let go of each other. A low value points to a long-lived complex. As usually defined, the kon is a measure of how fast the partners come together. The low end stands for slower complex formation, the high end for faster complex formation.

This is an account of results in patent US20250066483A1.

The target of the assay is bovine PD-1-His (bovine). The experiment in a line: SPR (Biacore X100), bovine PD-1-His immobilised on a CM5 chip, antibody as analyte, single kinetics, 3 repeats. Background: Surface plasmon resonance follows binding to a sensor surface in real time, without labels.

B1: rat anti-bovine PD-1 monoclonal antibody 5D2 (antibody, V domains shown)
VH: QVQLKETGPGLVQPTQTLSITCTVSGFSLTSYYIQWVRQTPGKGLEWMGFIRSGGSTEYNSEFKSRLSINRDTSKNQVFLKMNSLKTEDTGVYYCARTSSGYEGGFDYWGQGVMVTVSS
VL: DVVLTQTPVSLSVTLGDQASISCRSSQSLEYSDGYTYLEWYLQKPGQSPQLLIYGVSNRFSGVPDRFIGSGSGTDFTLKISRVEPEDLGVYYCFQATHDPDTFGAGTKLELK
The molecule B1 showed a Kd of 12.2 nM, a koff of 0.000215 s⁻¹ and a kon of 18400 M⁻¹ s⁻¹.
